In the supplement of paper PMC7877785:
± gives the uncertainty stated by the source.

Test: self-splicing fitness, log relative to wild type (ln ratio); higher = more splicing; Tetrahymena group I intron in knt gene, E. coli kanamycin selection, DiMSum; sequences stand for … in CUCUCU…GGAGGGAAAAGUUAUCAGGCAUGCACCUGGUAGCUAGUCUUUAAACCAAUAGAUUGCAUCGGUUUAAAAGGCAAGACCGUCAAAUUGCGGGAAAGGGGUCAACAGCCGUUCAGUACCAAGUCUCAGGGGAAACUUUGAGAUGGCCUUGCAAAGGGUAUGGUAAUAAGCUGACGGACAUGGUCCUAACCACGCAGCCAAGUCCUAAGUCAACAGAUCUUCUGUUGAUAUGGAUGCAGUUCACAGACUAAAUGUCGGUCGGGGAAGAUGUAUUCUUCUCAUAAGAUAUAGUCGGACCUCUCCUUAAUGGGAGCUAGCGGAUGAAGUGAUGCAACACUGGAGCCGCUGGGAACUAAUUUGUAUGCGAAAGUAUAUUGAUUAGUUUUGGAGUACUCGUGGUCG
Outline: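 Pooled colonies went to amplicon sequencing on an Illumina HiSeq 2500 after six replicate transformations. The plates were LB agar with 100 μg/mL carbenicillin, 50 μM IPTG and 0.2% rhamnose, with or without 25 μg/mL kanamycin, incubated overnight at 37°C or 30°C. The E. coli BL21(DE3) library had all eight P1ex-region intron nucleotides randomised, the intron placed in the knt kanamycin-resistance gene on pET-22b(+). DiMSum fitness is the error-weighted combination of replicate fold changes, kanamycin against none, normalised to wild type.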

Sequence	self-splicing fitness (ln) (30 °C)	self-splicing fitness (ln) (37 °C)
GCGUAGCAAUAUUACGAUAC	-1.95 ± 0.12	-0.893 ± 0.12
GCGUAGCAAUAUUACGCACU	-3.02 ± 0.24	0.255 ± 0.2
GCGUAGCAAUAUUACGCUAA	-3.9 ± 0.27	-2.25 ± 0.21
GCGUAGCAAUAUUACGCUGA	–	-3.19 ± 0.3
GCGUAGCAAUAUUACGCUGU	-3.16 ± 0.28	–
GCGUAGCAAUAUUACGCUUA	–	-2.06 ± 0.32
GCGUAGCAAUAUUACGGGGU	-3.95 ± 0.19	-1.86 ± 0.12
GCGUAGCAAUAUUACGGGUA	-1.56 ± 0.11	-0.91 ± 0.098
GCGUAGCAAUAUUACGGUCG	-0.963 ± 0.16	-1.07 ± 0.27
GCGUAGCAAUAUUACGGUGC	-3.73 ± 0.32	-2.95 ± 0.47
GCGUAGCAAUAUUACGGUUA	-0.359 ± 0.1	-0.119 ± 0.09
GCGUAGCAAUAUUACGUAAU	–	-0.693 ± 0.32
GCGUAGCAAUAUUACGUCCU	-1.47 ± 0.14	-0.8 ± 0.15
GCGUAGCAAUAUUACGUCGU	-2.13 ± 0.12	-2.04 ± 0.18
GCGUAGCAAUAUUACGUUAC	-2.56 ± 0.23	-2.37 ± 0.32
GCGUAGCAAUAUUACGUUCU	-2.08 ± 0.13	-1.38 ± 0.15
GCUAAGCAAUAUUACGAAGC	-3.24 ± 0.25	-0.413 ± 0.23
GCUAAGCAAUAUUACGAAGU	-3.47 ± 0.17	-3.01 ± 0.34
GCUAAGCAAUAUUACGACGU	-0.0363 ± 0.17	0.155 ± 0.19
GCUAAGCAAUAUUACGACUU	-0.326 ± 0.09	-0.0273 ± 0.098
GCUAAGCAAUAUUACGAGGG	-2.18 ± 0.14	-1.64 ± 0.16
GCUAAGCAAUAUUACGAUCA	-1.29 ± 0.11	-0.823 ± 0.093
GCUAAGCAAUAUUACGAUCU	-0.886 ± 0.13	0.178 ± 0.14
GCUAAGCAAUAUUACGAUUU	-0.73 ± 0.065	0.0848 ± 0.075
GCUAAGCAAUAUUACGCACU	-0.54 ± 0.071	0.421 ± 0.11

Sequence	self-splicing fitness (ln) (30 °C)	self-splicing fitness (ln) (37 °C)
GCUAAGCAAUAUUACGCCGG	-2.65 ± 0.2	-1.33 ± 0.19
GCUAAGCAAUAUUACGCUGC	-3.12 ± 0.34	–
GCUAAGCAAUAUUACGCUUU	-3.06 ± 0.15	-1.71 ± 0.15
GCUAAGCAAUAUUACGGAAC	-1.46 ± 0.093	-0.743 ± 0.1
GCUAAGCAAUAUUACGGCCA	-0.635 ± 0.2	-1.58 ± 0.2
GCUAAGCAAUAUUACGGCUU	-0.732 ± 0.1	-0.973 ± 0.16
GCUAAGCAAUAUUACGGGAC	-2.81 ± 0.13	-1.53 ± 0.14
GCUAAGCAAUAUUACGGGCG	-0.341 ± 0.12	0.183 ± 0.14
GCUAAGCAAUAUUACGGGGU	-2.06 ± 0.18	-3.04 ± 0.25
GCUAAGCAAUAUUACGUCAU	-1.7 ± 0.095	0.727 ± 0.12
GCUAAGCAAUAUUACGUGAG	-0.321 ± 0.06	-0.28 ± 0.071
GCUAAGCAAUAUUACGUGCC	-3.59 ± 0.24	-2.35 ± 0.23
GCUAAGCAAUAUUACGUGCG	-1.07 ± 0.086	0.103 ± 0.1
GCUAAGCAAUAUUACGUGUU	-1.78 ± 0.072	-0.774 ± 0.093
GCUAAGCAAUAUUACGUUGC	-2.26 ± 0.46	-1.71 ± 0.38
GCUCAGCAAUAUUACGACAA	-1.6 ± 0.15	-1.42 ± 0.21
GCUCAGCAAUAUUACGAGUG	-1.21 ± 0.063	-0.148 ± 0.092
GCUCAGCAAUAUUACGAUCA	-0.7 ± 0.19	-0.164 ± 0.17
GCUCAGCAAUAUUACGAUUA	-0.516 ± 0.072	-0.287 ± 0.08
GCUCAGCAAUAUUACGCAUC	-0.653 ± 0.079	-0.186 ± 0.087
GCUCAGCAAUAUUACGCCGU	-0.521 ± 0.14	-1.61 ± 0.22
GCUCAGCAAUAUUACGCGUC	-0.866 ± 0.1	-0.379 ± 0.12
GCUCAGCAAUAUUACGGAGC	–	-1.82 ± 0.44
GCUCAGCAAUAUUACGGAGG	-1.44 ± 0.08	-0.504 ± 0.091
GCUCAGCAAUAUUACGGCAA	-1.98 ± 0.16	-1.1 ± 0.17

Sequence	self-splicing fitness (ln) (30 °C)	self-splicing fitness (ln) (37 °C)
GCUCAGCAAUAUUACGGCGA	-1.73 ± 0.12	-1.36 ± 0.19
GCUCAGCAAUAUUACGGCGC	-1.44 ± 0.085	-0.248 ± 0.12
GCUCAGCAAUAUUACGGGAC	-0.927 ± 0.27	-0.928 ± 0.26
GCUCAGCAAUAUUACGGUAC	-0.486 ± 0.13	-0.709 ± 0.15
GCUCAGCAAUAUUACGUACU	-0.953 ± 0.087	-0.636 ± 0.086
GCUCAGCAAUAUUACGUCCA	-1.28 ± 0.11	-0.711 ± 0.13
GCUCAGCAAUAUUACGUGCA	-1.12 ± 0.097	-0.787 ± 0.1
GCUCAGCAAUAUUACGUUCU	-0.649 ± 0.074	-0.195 ± 0.09
GCUGAGCAAUAUUACGAGCC	-1.55 ± 0.43	–
GCUGAGCAAUAUUACGAGGU	-3.72 ± 0.29	-1.74 ± 0.22
GCUGAGCAAUAUUACGCAAC	-2.18 ± 0.24	-2.11 ± 0.37
GCUGAGCAAUAUUACGCAUG	-2.68 ± 0.13	-1.92 ± 0.17
GCUGAGCAAUAUUACGCCUA	-1.55 ± 0.32	-0.595 ± 0.2
GCUGAGCAAUAUUACGCUGA	-2.99 ± 0.2	-1.15 ± 0.17
GCUGAGCAAUAUUACGCUUC	-2.38 ± 0.15	-3.41 ± 0.39
GCUGAGCAAUAUUACGGACA	-2.53 ± 0.2	-0.488 ± 0.17
GCUGAGCAAUAUUACGGCUU	-2.37 ± 0.24	–
GCUGAGCAAUAUUACGGGAA	-4.56 ± 0.42	-2.02 ± 0.21
GCUGAGCAAUAUUACGGGCG	-1.83 ± 0.14	0.15 ± 0.15
GCUGAGCAAUAUUACGGGUC	-4.37 ± 0.46	-1.36 ± 0.24
GCUGAGCAAUAUUACGGGUU	-3.5 ± 0.15	-3.05 ± 0.13
GCUGAGCAAUAUUACGGUUC	-2.48 ± 0.14	-1.69 ± 0.15
GCUGAGCAAUAUUACGUCAA	-3.38 ± 0.47	–
GCUGAGCAAUAUUACGUGGG	-2.02 ± 0.16	-2.36 ± 0.26
GCUGAGCAAUAUUACGUGUA	-2.4 ± 0.21	-3.02 ± 0.32

Sequence	self-splicing fitness (ln) (30 °C)	self-splicing fitness (ln) (37 °C)
GCUUAGCAAUAUUACGAACA	-1.38 ± 0.16	-0.519 ± 0.19
GCUUAGCAAUAUUACGAACU	-0.838 ± 0.08	0.0658 ± 0.1
GCUUAGCAAUAUUACGACUU	0.0581 ± 0.092	0.248 ± 0.1
GCUUAGCAAUAUUACGAGGU	-4.11 ± 0.21	-2.55 ± 0.18
GCUUAGCAAUAUUACGAGUA	-1.37 ± 0.16	-0.0404 ± 0.14
GCUUAGCAAUAUUACGAGUC	-2.18 ± 0.16	-2.22 ± 0.22
GCUUAGCAAUAUUACGAUUC	-0.128 ± 0.12	0.0621 ± 0.13
GCUUAGCAAUAUUACGCAAC	-2.43 ± 0.22	-0.318 ± 0.13
GCUUAGCAAUAUUACGCCAG	-1.89 ± 0.33	-1.76 ± 0.33
GCUUAGCAAUAUUACGCGUC	-0.947 ± 0.13	-0.88 ± 0.13
GCUUAGCAAUAUUACGGAAA	-2.37 ± 0.25	-0.752 ± 0.17
GCUUAGCAAUAUUACGGAUA	-2.7 ± 0.39	-1.71 ± 0.31
GCUUAGCAAUAUUACGGAUC	-0.319 ± 0.092	0.437 ± 0.11
GCUUAGCAAUAUUACGGCUG	-3.18 ± 0.28	-2.21 ± 0.28
GCUUAGCAAUAUUACGGGUG	-0.826 ± 0.059	-0.144 ± 0.075
GCUUAGCAAUAUUACGGUUC	-0.635 ± 0.098	-0.185 ± 0.12
GCUUAGCAAUAUUACGUCAU	-2.19 ± 0.14	-0.965 ± 0.12
GGAAAGCAAUAUUACGAAAU	-1.52 ± 0.3	-1 ± 0.41
GGAAAGCAAUAUUACGAAUC	-1.73 ± 0.14	-1.5 ± 0.17
GGAAAGCAAUAUUACGACGA	-0.602 ± 0.13	0.0265 ± 0.16
GGAAAGCAAUAUUACGAGCU	-0.199 ± 0.11	0.478 ± 0.12
GGAAAGCAAUAUUACGAGGG	-3.74 ± 0.17	-2.54 ± 0.16
GGAAAGCAAUAUUACGCCCA	0.064 ± 0.16	0.325 ± 0.23
